The values that follow come from patent publication US20160312212A1, “COW ANTIBODY SCAFFOLD POLYPEPTIDE METHOD AND COMPOSITION” (Roche Sequencing Solutions, Inc., priority 2015, published 2016).

This experiment deals with Biotinylated Human Thrombin (human) (UniProt P00734). The experiment can be described thus: mRNA display selection on biotinylated human thrombin, round 2; NGS read frequency.

“mRNA-displayed cow antibody scaffold polypeptide with cassette RTKIK*NGL* (designed binder)”: the counts turned out to be 86 counts and the percentage (%) was determined as 0.0052%.
